Values belong to the substance of their own block, whether it stands above or below them.
Assays:
Assay in all cases: cross-linking
[1] = molecular target: Recombinant full-length human apolipoprotein A-I F71Y (human)
[2] = molecular target: Recombinant full-length human apolipoprotein A-I L159R (Finnish variant) (human)
[3] = molecular target: Recombinant full-length human apolipoprotein A-I L170P (human)

- stoichiometry N [1]: 2
Substance: Recombinant full-length human apolipoprotein A-I F71Y (natural protein)

- stoichiometry N [2]: 2
Substance: Recombinant full-length human apolipoprotein A-I L159R (Finnish variant) (natural protein)

- stoichiometry N [3]: 2
Substance: Recombinant full-length human apolipoprotein A-I L170P (natural protein)

— article PMC6067968
